How the values were obtained:
[1] = tested on: serum LH, FSH, oestradiol and progesterone; assay: Intranasal kisspeptin-54, reproductive hormone profiles in healthy women; assay type: in vivo, human; conditions: N = 12
Method: This was a randomised, double-blinded, crossover, placebo-controlled clinical study (Fig. 1, Fig. 2, Fig. 3a). Participants were admitted to the Clinical Research Unit (Imperial College Healthcare NHS Trust) and completed five (in healthy men) or two (in healthy women and patients with HA) study visits. […] Study visits in healthy women were conducted in the follicular phase of the menstrual cycle (i.e., days 2–10 inclusive) to control for changes in reproductive hormones over the course of the cycle and were conducted across two different menstrual cycles to allow washout.
All studies commenced at 08:00 to control for circadian hormonal changes. Participants were instructed to abstain from alcohol, caffeine, and sexual activities from 22:00 preceding each study visit. On arrival, an intravenous cannula was inserted into one antecubital fossa, and blood was sampled at timepoints −30, −15, and 0 min, before intranasal administration of kisspeptin-54 or 0.9% saline (placebo). Following participant education (described below), healthy men self-administered the following 5 interventions under supervision in random order via the intranasal route: 3.2, 6.4, 12.8, and 25.6 nmol/kg of kisspeptin-54, or placebo. Healthy women and patients with HA attended for the same protocol comparing 12.8 nmol/kg of kisspeptin-54 and placebo in random order. After administration of kisspeptin-54 or placebo at timepoint 0 min, serum levels of LH, FSH, and testosterone (in men), or oestradiol and progesterone (in women) were measured every 15 min for 4 h. Heart rate, blood pressure, and the presence of adverse symptoms were recorded every 15 min.
Kisspeptin-54 or placebo was self-administered using nasal spray devices that delivered a single volume of 100 μL per actuation (SP270+ pump, 3959 actuator, 5 mL SGD U-Save glass bottles provided by Nemera, La Verpillière, France). The kisspeptin-54 nasal spray solution formulations were prepared by reconstituting kisspeptin-54 powder stored in sterile vials on the morning of each study visit to produce a solution containing the target dose according to body weight in 400 μL.
Participants were familiarised with the procedure of intranasal application and were provided with written administration instructions ahead of each study visit, as described in.[38] In addition, participants received a 5-min training session using a dummy nasal spray device before starting the study to ensure good technique, which all participants easily understood. Under instruction and supervision from the clinical team, participants primed the nasal sprays then self-administered a total of four sprays of kisspeptin-54 or placebo per visit (i.e., 4 × 100 μL), alternating between nostrils and leaving 60 s between sprays, to allow satisfactory dissipation and avoid solution running out of the nostrils. Nasal sprays containing kisspeptin or placebo were identical in appearance, volume, and administration technique.
Blood samples were collected to measure serum reproductive hormone levels at the timepoints depicted in Fig. 1, Fig. 2, Fig. 3a. Serum samples were stored at −20 °C until analysis. Serum LH, FSH, testosterone (in men), and oestradiol and progesterone (in women) were measured using automated chemiluminescent immunoassays (Abbott Diagnostics, Maidenhead, UK: LH catalogue # 2P40-25, FSH catalogue # 7K75-25, testosterone catalogue # 07K7320, oestradiol catalogue # 7K72-25, progesterone catalogue # 7K77-25). Reference ranges: LH in international units per litre (IU/L), 2–12 (men), 2–10 (follicular), 20–60 (mid-cycle), 4–14 (luteal); FSH in IU/L, 1.7–8 (men), 1.5–8.0 (follicular and luteal), 10–50 (mid-cycle); in men: testosterone in nanomoles per litre (nmol/L), 10–30; and in women: oestradiol in picomoles per litre (pmol/L), <300 (early follicular), 400–1500 (mid-cycle), 200–1000 (luteal) and progesterone in nmol/L, <5.0 (follicular), 3.5–67 (luteal). […]

[2] = Kisspeptin-54 powder particle size and shape analysis (Morphologi 4); assay type: physicochemical
Method: Particle size and shape analysis of the kisspeptin-54 powder was performed using a Morphologi 4 (Malvern Instruments, Worcestershire, UK). Particles were readily dispersed using the dispersion unit at low energy level. Bright field illumination was used for microscopic visualisation of the particles with the light intensity calibrated to 70%. The samples were scanned using the 20× objective lens over a scan area of 4.5 mm by 4.5 mm with a trash size of 10 pixels.

[3] = tested on: LH; conditions: mice, intraperitoneal route, 1 nM; cited from earlier work
[4] = Stability of kisspeptin-54 solutions for nasal delivery; assay type: physicochemical; conditions: for Reduction of the initial concentration: after 60 days, HPLC; for % of initial concentration: chemical stability, 3.5 mg/mL in 0.9% saline, HPLC-UV 220 nm, mean ± SEM, N = 3
Method: Kisspeptin-54 3.5 mg/mL solutions, equivalent to the lowest dose used in the human clinical study, were prepared and aliquoted into glass nasal spray devices and sealed amber glass vials (airtight, light protected control). The test materials were stored upright in a single location (4 °C refrigerator with temperature monitoring) with minimal manipulation or movement for 60 days. On each day of analysis, three aliquots were sampled from each container and analysed by HPLC.
Each kisspeptin-54 sample was assayed in triplicate using a Waters 2795 Separation Module HPLC equipped with Waters 2996 Photodiode Array Detector and a Luna® 3 μm C18 100 Å LC Column 150 × 4.6 mm with trimethylsilyl (TMS) end capping used. Injection volume was 25 μL and the mobile phase was a gradient using eluent A (0.05% trifluoroacetic acid (TFA):1% acetonitrile (ACN): 98.95% H20) and eluent B (0.05% TFA in MeOH/ACN 1:1(V/V)) from 20 to 60% eluent B with a flow rate of 1 mL/min and a run time of 15 min. Column temperature was set at 40 °C and ultraviolet (UV) detection at 220 nm. The assay was validated for linearity (r = 0.993), accuracy and precision in the range 0.3–0.7 mg/mL.

[5] = follicular phase, intranasal 12.8 nmol/kg, 4 h sampling, mean ± SEM
[6] = follicular phase, intranasal 12.8 nmol/kg, mean ± SEM
[7] = intranasal 12.8 nmol/kg vs placebo, paired t-test
[8] = intranasal 12.8 nmol/kg, two-way ANOVA, 4 h time profile

## Kisspeptin-54
[1]; [5]
  AUC of the change in serum FSH: -36.1 ± 23.4 h·IU/L
  AUC of the change in serum LH: 96.0 ± 45.8 h·IU/L
[1]; [6]
  Maximum increase from baseline in serum FSH: 0.3 ± 0.1 IU/L
  Maximum increase from baseline in serum LH: 1.4 ± 0.3 IU/L
[1]; [7]
  FSH AUC, mean difference vs placebo: 76.4 h·IU/L
  FSH maximum increase, mean difference vs placebo: 0.4 IU/L
  LH AUC, mean difference vs placebo: 179.8 h·IU/L
  LH maximum increase, mean difference vs placebo: 1.0 IU/L
[1]; intranasal 12.8 nmol/kg, acute 4-h time-course
  Effect on circulating oestradiol and progesterone levels: no significant effects
[1]; [8]
  Serum FSH over time, mean difference vs placebo: 0.3 IU/L
  Serum LH over time, mean difference vs placebo: 0.7 IU/L
[2]; Morphologi 4
  Particle shape: irregular-shaped particles
  Proportion of particles in the 20–50 μm range: over 40%
[2]; Morphologi 4, N = 55,421 particles
  Circular equivalent diameter range of powder particles: 0.5–113 μm
[2]; Morphologi 4 static automated imaging
  Powder particle size range (particles largely within): 10–110 μm
[3]
  Effect on LH: robustly increases LH
[4]; 0.9% saline solution, 4 °C
  Time within pharmaceutically accepted limits for stability: up to 60 days
[4]; 0.9% saline, 4 °C, 60 days of storage, either container type
  Appearance of the solution (clear when freshly made): no change was observed
[4]; 0.9% saline, 4 °C, glass nasal spray devices
  Reduction of the initial concentration: 5.4%
[4]; 0.9% saline, 4 °C, sealed amber glass vials
  Reduction of the initial concentration: 5.0%
[4]; 4 °C in nasal spray, 4 days
  % of initial concentration: 98.06 ± 1.11%
[4]; 4 °C in nasal spray, 7 days
  % of initial concentration: 98.28 ± 0.69%
[4]; 4 °C in nasal spray, 14 days
  % of initial concentration: 97.90 ± 0.67%
[4]; 4 °C in nasal spray, 28 days
  % of initial concentration: 96.11 ± 0.51%
[4]; 4 °C in nasal spray, 60 days
  % of initial concentration: 94.56 ± 1.67%
[4]; 4 °C in sealed amber vial, 4 days
  % of initial concentration: 98.94 ± 0.57%
[4]; 4 °C in sealed amber vial, 7 days
  % of initial concentration: 98.69 ± 0.58%
[4]; 4 °C in sealed amber vial, 14 days
  % of initial concentration: 97.91 ± 0.64%
[4]; 4 °C in sealed amber vial, 28 days
  % of initial concentration: 97.32 ± 0.56%
[4]; 4 °C in sealed amber vial, 60 days
  % of initial concentration: 95.01 ± 1.45%

Source: publication PMC12018048, “Intranasal kisspeptin administration rapidly stimulates gonadotropin release in humans” (eBioMedicine, 2025)
